Experimental data taken from PMC3308694 (The Journal of Cell Biology, 2012).

Target: the molecule itself
Experiment: SEC

B1: CC^95–303 with the E191A + K192A mutation (domain or fragment, S. cerevisiae, UniProt Q00402 95-303, looked up)
chain: KDMNFTLELSENLLVECRKLQSSNEAKNEQIKSLKQIKESLSDKIEELTNQKKSFMKELDSTKDLNWDLESKLTNLSMECRQLKELKKKTEKSWNDAAESLKLLKTDLEILTLTKNGMENDLSSQKLHYDKEISELKERILDLNNENDRLLISVSDLTSEINSLQSNRTERIKIQKQLDDAKASISSLKRKVQKKYYQKQHTSDTTVTS
binding result: binds
